This passage reports Mean relative activity results from patent US20220259593A1, “CONTROL OF MAMMALIAN GENE DOSAGE USING CRISPR” (The Regents of the University of California, priority 2019, published 2022).

Changes are numbered by the printed parent chain.

The subject of this data set is K562 CRISPRi cells. Description: Constant region variant library pooled growth screen, K562. The class given is cell-based, human. The following applies: sgRNA constant region variants; activity relative to the original, un-modified constant region cr995. The essentials:
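Pooled library transduced into K562 CRISPRi cells in duplicate, puromycin-selected, grown at >2000× coverage and sampled after 4 to 8 days. Phenotypes per targeting sequence:constant region pair were normalized to the unmodified-scaffold pairing to give relative activity.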

B1: cr244 (nucleic acid)
guide: GTTTAAGAGCTAAGCTGGAAACAGCATAGCAAGGTTAAATAAGGGTACTCCGTTATCAACTTGAAAAAGTGGCACCGAGTCGGTGCT
modifications: listed as DNA, chemistry not fully specified
B1 yielded a Mean relative activity of 0.00149.

B2: cr053 (nucleic acid)
guide: B1 guide with T2A, A5C, G34T, G45C, C48G
modifications: listed as DNA, chemistry not fully specified
Take B2: the Mean relative activity is −0.003704.

B3: cr065 (nucleic acid)
guide: B1 guide with T3A, A6C, G34T, G45C, C48G
modifications: listed as DNA, chemistry not fully specified
Turning to B3, the Mean relative activity is listed as −0.003148.

B4: cr350 (nucleic acid)
guide: B1 guide with G34C, G43T, G45C, C48G, C51A
modifications: listed as DNA, chemistry not fully specified
Consider B4, for which the Mean relative activity was 0.001423.

B5: cr035 (nucleic acid)
guide: B1 guide with T4G, A6T, G34T, G45C, C48G
modifications: listed as DNA, chemistry not fully specified
Turning to B5, the Mean relative activity worked out at 0.0006927.

B6: cr235 (nucleic acid)
guide: B1 guide with G34T, G45C, C48G, T61A, A65G, A68T
modifications: listed as DNA, chemistry not fully specified
The molecule B6 showed a Mean relative activity of 1.027.

B7: cr751 (nucleic acid)
guide: B1 guide with A28C, G33C, G34T, G45C, C48G, G52T
modifications: listed as DNA, chemistry not fully specified
Consider B7, for which the Mean relative activity is −0.000557.

B8: cr233 (nucleic acid)
guide: B1 guide with G33C, G34T, G45C, C48G, G77C, C81G
modifications: listed as DNA, chemistry not fully specified
Take B8: the Mean relative activity is recorded as −0.003511.

B9: cr039 (nucleic acid)
guide: B1 guide with T2A, A6T, G34T, G45C, C48G
modifications: listed as DNA, chemistry not fully specified
Molecule B9 had a Mean relative activity of −0.0006181.

B10: cr595 (nucleic acid)
guide: B1 guide with G34T, G43C, G45C, C48G
modifications: listed as DNA, chemistry not fully specified
In turn, B10 gave a Mean relative activity of −0.002984.

B11: cr787 (nucleic acid)
guide: B1 guide with G33C, G34T, G43C, G45C, C48G, C51G
modifications: listed as DNA, chemistry not fully specified
Molecule B11 gave a Mean relative activity of 0.0008483.

B12: cr894 (nucleic acid)
guide: B1 guide with G33C, G34T, G45C, C48G, C60T, G69A
modifications: listed as DNA, chemistry not fully specified
B12 came in with a Mean relative activity of −0.003408.

B13: cr579 (nucleic acid)
guide: B1 guide with G34T, G45C, C48G, G52C, T53A
modifications: listed as DNA, chemistry not fully specified
In the case of B13, the Mean relative activity is listed as −0.000418.

B14: cr939 (nucleic acid)
guide: B1 guide with G33C, G34T, G45C, T46A, C48G, G52C
modifications: listed as DNA, chemistry not fully specified
B14 returned a Mean relative activity of 4.94E−05.

B15: cr802 (nucleic acid)
guide: B1 guide with G34T, G43C, G45C, C48G, C51G, C60G, G69C, C75G, G83C
modifications: listed as DNA, chemistry not fully specified
B15 returned a Mean relative activity of −0.005377.

B16: cr817 (nucleic acid)
guide: B1 guide with A42G, G45C, C48G, A65T
modifications: listed as DNA, chemistry not fully specified
B16 displayed a Mean relative activity of −0.002514.

B17: cr179 (nucleic acid)
guide: B1 guide with G45C, C48G, C76T, G82A
modifications: listed as DNA, chemistry not fully specified
The molecule B17 showed a Mean relative activity of −0.004493.

B18: cr921 (nucleic acid)
guide: B1 guide with G33A, G45C, C48G
modifications: listed as DNA, chemistry not fully specified
In turn, B18 gave a Mean relative activity of −0.002203.

B19: cr099 (nucleic acid)
guide: B1 guide with G33T, G34T, G45C, C48G, T49G
modifications: listed as DNA, chemistry not fully specified
As for B19, the Mean relative activity was determined as 0.0005052.

B20: cr497 (nucleic acid)
guide: B1 guide with G34T, G45C, C48G, A65G, C73A, G85T
modifications: listed as DNA, chemistry not fully specified
B20 displayed a Mean relative activity of 1.028.

B21: cr629 (nucleic acid)
guide: B1 guide with G33C, G34T, G45C, C48G, C60A, G69T
modifications: listed as DNA, chemistry not fully specified
B21 yielded a Mean relative activity of −5.97E−5.

B22: cr178 (nucleic acid)
guide: B1 guide with G33T, G34T, A41G, G45C, C48G, A58G
modifications: listed as DNA, chemistry not fully specified
B22 registered a Mean relative activity of −0.0008744.

B23: cr106 (nucleic acid)
guide: B1 guide with G44T, G45C, C48G, C50A
modifications: listed as DNA, chemistry not fully specified
B23 returned a Mean relative activity of 0.001355.

B24: cr589 (nucleic acid)
guide: B1 guide with G34T, G43T, G45A, C48T, C51A
modifications: listed as DNA, chemistry not fully specified
B24 gave a Mean relative activity of −0.005108.

B25: cr058 (nucleic acid)
guide: B1 guide with T4G, A5C, G34T, G45C, C48G
modifications: listed as DNA, chemistry not fully specified
In the case of B25, the Mean relative activity is on record as −0.003151.

B26: cr093 (nucleic acid)
guide: B1 guide with A5C, A6G, G34T, G45C, C48G
modifications: listed as DNA, chemistry not fully specified
In turn, B26 registered a Mean relative activity of 0.001456.

B27: cr033 (nucleic acid)
guide: B1 guide with T4A, G7A, G34T, G45C, C48G
modifications: listed as DNA, chemistry not fully specified
B27 returned a Mean relative activity of −0.004656.

B28: cr564 (nucleic acid)
guide: B1 guide with G45C, C48G, C75G, G83C
modifications: listed as DNA, chemistry not fully specified
For the molecule B28, the Mean relative activity was −0.001952.

B29: cr847 (nucleic acid)
guide: B1 guide with G34C, G45C, C48G, G77C, C81G
modifications: listed as DNA, chemistry not fully specified
The molecule B29 had a Mean relative activity of −0.002682.

B30: cr912 (nucleic acid)
guide: B1 guide with G34C, A41G, G45C, C48G, T53G
modifications: listed as DNA, chemistry not fully specified
For the molecule B30, the Mean relative activity is −1.05E−05.

B31: cr431 (nucleic acid)
guide: B1 guide with G45C, C48G, A65G, A78C
modifications: listed as DNA, chemistry not fully specified
Regarding B31, the Mean relative activity is given as −0.0002713.

B32: cr673 (nucleic acid)
guide: B1 guide with G33C, G34T, G45C, C48G, A78T
modifications: listed as DNA, chemistry not fully specified
B32 yielded a Mean relative activity of −0.005072.

B33: cr083 (nucleic acid)
guide: B1 guide with T3G, A5G, G34T, G45C, C48G
modifications: listed as DNA, chemistry not fully specified
Molecule B33 showed a Mean relative activity of 0.001403.

B34: cr686 (nucleic acid)
guide: B1 guide with G33C, G34T, G45C, C48G, T80A
modifications: listed as DNA, chemistry not fully specified
In turn, B34 registered a Mean relative activity of −0.004019.

B35: cr326 (nucleic acid)
guide: B1 guide with G34C, G43C, G45C, C48G, C51G
modifications: listed as DNA, chemistry not fully specified
Regarding B35, the Mean relative activity is −0.001062.

B36: cr535 (nucleic acid)
guide: B1 guide with G34T, G45C, C48G, C51A
modifications: listed as DNA, chemistry not fully specified
Turning to B36, the Mean relative activity is −0.0004281.

B37: cr637 (nucleic acid)
guide: B1 guide with G29T, G34A, G45C, C48G, A65G
modifications: listed as DNA, chemistry not fully specified
For the molecule B37, the Mean relative activity was −0.001265.

B38: cr828 (nucleic acid)
guide: B1 guide with A32G, G34T, G45C, C48G
modifications: listed as DNA, chemistry not fully specified
With B38, the Mean relative activity amounted to 1.028.

B39: cr122 (nucleic acid)
guide: B1 guide with G33C, G34T, G45C, C48G, C57T, A65T
modifications: listed as DNA, chemistry not fully specified
Take B39: the Mean relative activity is listed as −0.003408.
